The target in this data set is recombinant human CD4 (rCD4) (human, UniProt P01730 26-396). Kind of data set: BLI.

B1: Apt62 (Aptamer 62) (structured_DNA)
DNA: ATCCAGAGTGACGCAGCACCACCACCGTACAATTCGCTTTCTTTTTTCATTACCTACTCTGGCTTTTT
Turning to B1, the equilibrium dissociation constant (Kd) worked out at 536 nM.

The record behind these values is article doi:10.1101/2025.09.10.675359.
